Measurements taken from patent US20260209362A1 (VIB VZW, published 2026).

T1: biotinylated recombinant human IL-12Rβ2 (human, UniProt Q99665 24-622, random biotinylated)
T1 construct: Recombinant protein produced in-house, biotinylated; also called hIL-12RB2; human IL-12RB2
T1 sequence: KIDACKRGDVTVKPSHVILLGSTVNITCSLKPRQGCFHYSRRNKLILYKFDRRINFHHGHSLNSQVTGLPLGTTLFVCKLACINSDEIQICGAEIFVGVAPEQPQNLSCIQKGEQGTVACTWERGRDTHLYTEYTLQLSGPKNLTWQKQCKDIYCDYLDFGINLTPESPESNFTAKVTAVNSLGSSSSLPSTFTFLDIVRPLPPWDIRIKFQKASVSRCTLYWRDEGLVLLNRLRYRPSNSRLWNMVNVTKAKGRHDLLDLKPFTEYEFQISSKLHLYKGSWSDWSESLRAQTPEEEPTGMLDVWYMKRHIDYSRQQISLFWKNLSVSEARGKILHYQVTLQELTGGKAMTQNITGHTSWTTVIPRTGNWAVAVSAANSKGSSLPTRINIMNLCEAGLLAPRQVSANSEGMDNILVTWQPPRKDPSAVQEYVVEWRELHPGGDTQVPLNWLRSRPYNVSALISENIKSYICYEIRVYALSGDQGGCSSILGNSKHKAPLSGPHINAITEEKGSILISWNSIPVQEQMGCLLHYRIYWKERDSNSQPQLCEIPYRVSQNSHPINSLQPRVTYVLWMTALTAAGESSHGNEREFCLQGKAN

T2: biotinylated recombinant mouse IL-12Rβ2 (mouse, UniProt P97378 24-637, random biotinylated)
T2 construct: Recombinant protein produced in-house, biotinylated; also called mIL-12RB2; mouse IL-12RB2
T2 sequence: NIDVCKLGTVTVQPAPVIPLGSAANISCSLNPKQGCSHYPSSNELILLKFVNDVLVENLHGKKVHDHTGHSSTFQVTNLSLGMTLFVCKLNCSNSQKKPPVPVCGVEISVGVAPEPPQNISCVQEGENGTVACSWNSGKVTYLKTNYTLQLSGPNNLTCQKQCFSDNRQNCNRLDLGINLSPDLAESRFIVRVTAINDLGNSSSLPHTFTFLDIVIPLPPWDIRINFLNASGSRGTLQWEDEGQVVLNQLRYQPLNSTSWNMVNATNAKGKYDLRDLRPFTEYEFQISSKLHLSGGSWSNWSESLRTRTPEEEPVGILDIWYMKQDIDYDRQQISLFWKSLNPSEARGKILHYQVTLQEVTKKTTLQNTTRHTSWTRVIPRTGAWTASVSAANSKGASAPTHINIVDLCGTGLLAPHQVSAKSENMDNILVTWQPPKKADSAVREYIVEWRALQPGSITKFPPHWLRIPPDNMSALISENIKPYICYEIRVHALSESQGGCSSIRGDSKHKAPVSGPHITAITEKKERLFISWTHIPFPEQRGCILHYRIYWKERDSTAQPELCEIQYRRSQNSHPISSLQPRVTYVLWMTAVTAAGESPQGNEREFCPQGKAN

T3: biotinylated recombinant mouse IL-12Rβ2 (produced in-house) (mouse, UniProt P97378 24-637, randomly biotinylated)
T3 construct: also called mIL-12RB2; mouse IL-12RB2
T3 sequence: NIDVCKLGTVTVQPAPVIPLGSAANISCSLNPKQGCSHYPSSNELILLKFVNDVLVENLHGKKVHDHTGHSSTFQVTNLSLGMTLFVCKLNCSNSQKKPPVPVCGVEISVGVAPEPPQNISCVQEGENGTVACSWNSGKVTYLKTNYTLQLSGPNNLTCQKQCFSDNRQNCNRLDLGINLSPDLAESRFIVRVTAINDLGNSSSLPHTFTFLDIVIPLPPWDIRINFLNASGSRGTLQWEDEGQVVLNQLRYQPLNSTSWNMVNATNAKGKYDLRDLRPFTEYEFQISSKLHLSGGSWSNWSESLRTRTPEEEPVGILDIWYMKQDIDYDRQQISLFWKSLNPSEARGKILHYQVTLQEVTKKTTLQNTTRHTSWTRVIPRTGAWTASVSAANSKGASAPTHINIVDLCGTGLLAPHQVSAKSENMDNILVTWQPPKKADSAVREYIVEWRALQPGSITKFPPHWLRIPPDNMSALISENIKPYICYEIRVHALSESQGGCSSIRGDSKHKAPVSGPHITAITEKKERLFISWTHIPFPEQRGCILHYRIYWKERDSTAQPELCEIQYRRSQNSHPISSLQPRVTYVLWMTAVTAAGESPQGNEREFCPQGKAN

T4: biotinylated recombinant human IL-12Rβ2 (produced in-house) (human, UniProt Q99665 24-622, randomly biotinylated)
T4 construct: also called hIL-12RB2; human IL-12RB2
T4 sequence: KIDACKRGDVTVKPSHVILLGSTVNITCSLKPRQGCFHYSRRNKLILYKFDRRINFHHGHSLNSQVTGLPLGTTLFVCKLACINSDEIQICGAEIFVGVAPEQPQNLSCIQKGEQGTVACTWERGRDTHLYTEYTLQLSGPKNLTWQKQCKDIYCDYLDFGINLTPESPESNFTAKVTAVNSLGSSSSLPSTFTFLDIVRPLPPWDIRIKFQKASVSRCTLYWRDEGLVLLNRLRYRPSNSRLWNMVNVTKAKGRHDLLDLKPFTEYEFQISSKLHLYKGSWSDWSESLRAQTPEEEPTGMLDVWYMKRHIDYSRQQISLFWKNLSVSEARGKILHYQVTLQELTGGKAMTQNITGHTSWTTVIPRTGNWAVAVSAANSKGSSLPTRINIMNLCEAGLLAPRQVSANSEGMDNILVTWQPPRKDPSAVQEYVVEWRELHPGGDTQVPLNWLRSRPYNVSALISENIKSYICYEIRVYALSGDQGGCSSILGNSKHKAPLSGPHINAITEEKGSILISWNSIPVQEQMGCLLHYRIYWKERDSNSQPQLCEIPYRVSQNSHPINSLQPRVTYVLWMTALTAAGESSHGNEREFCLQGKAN


Experiments:
[1] = molecular target: T1, biotinylated recombinant human IL-12Rβ2; assay: ELISA, periplasmic extract on biotinylated hIL-12Rβ2, signal over control wells
[2] = molecular target: T1, biotinylated recombinant human IL-12Rβ2; assay: BLI (Octet), periplasmic extract on biotinylated hIL-12Rβ2 on streptavidin tips
[3] = molecular target: T1, biotinylated recombinant human IL-12Rβ2; assay: BLI (Octet), periplasmic extract on biotinylated hIL-12Rβ2 on streptavidin tips, 1:1 model
[4] = molecular target: T2, biotinylated recombinant mouse IL-12Rβ2; assay: ELISA, periplasmic extract on biotinylated mIL-12Rβ2, signal over control wells
[5] = molecular target: T3, biotinylated recombinant mouse IL-12Rβ2 …; assay: ELISA, periplasmic extract on biotinylated mouse IL-12Rβ2; control streptavidin-coated blocked wells
[6] = molecular target: T4, biotinylated recombinant human IL-12Rβ2 …; assay: ELISA, periplasmic extract on biotinylated human IL-12Rβ2; control streptavidin-coated blocked wells

Binder | ELISA binding hIL-12RB2/control [1] [ratio] | Response [2] | koff [3] [s⁻¹] | ELISA binding mIL-12RB2/control [4] [ratio] | ELISA binding mIL-12RB2/control [5] | ELISA binding hIL-12RB2/control [6]
anti-IL-12Rβ2 VHH clone 2CAM18 (VHH, Tested as periplasmic extract; CDR3 group 45; also called 20475) VHH: QVQLQESGGGLVQVGDSLKLSCVASGTTFSTHVMAWYRQAPGKQREWVASIDSAGTTNYKDAVKGRFTISRDNVKRTVYLQMNNLKPEDSAVYLCSIPSRNAWGQGTQVTVSS | – | – | – | – | 3.22 ratio to control | 1.51 ratio to control
anti-IL-12Rβ2 VHH clone 2CRMS29 (VHH, Tested as periplasmic extract; CDR3 group 52; also called 20521) VHH: QVQLQESGGGLVQAGGPLRLSCAASGRTFSGSAMGWFRQAPGKEREFVAAITWVGGFTYYADSVKGRFTISRDNAKNTVYLQMNNLSPEDTAVYSCAAQAYHKSGYYYPPLYDYWGQGTQVTVSS | – | – | – | – | 5.85 ratio to control | 1.05 ratio to control
anti-IL-12Rβ2 VHH clone 3CRM95 (VHH, Tested as periplasmic extract; CDR3 group 44; also called 20465) VHH: QVQLQESGGGLVQAGDFLRLSCVFSGGTFGDYSMGWFRQAPGKEREFVAAIRWSGDSTQYAEAVKGRFTISRDNAKSTVYLQMSSLKPEDTAVYYCAADPSYYIGPNHTPSRYRDWGQGTQVTVSS | – | – | – | – | 6.72 ratio to control | 1.41 ratio to control
anti-IL-12Rβ2 VHH clone 3CAM1 (VHH, Tested as periplasmic extract; CDR3 group 48) VHH: QVQLQESGGGLVQAGGSLRLSCAASGRTFGSHRMGWFRQAPGQEREFVAAIAWRGGTQYYTDSVKGRFTISRDNANNTVYLQMNSLKPEDAAVYYCVAGEGSSWGDITDPRRYVFWGQGTQVTVSS | – | – | – | – | 3.3 ratio to control | 1.2 ratio to control
anti-IL-12Rβ2 VHH clone 3CAM65 (VHH, Tested as periplasmic extract; CDR3 group 49; also called 20513) VHH: QVQLQESGGGLVQAGGSLRLSCAPSGRTFTTYVMGWFRQAPGKEREFVAHISWSGGRTYYADSVKGRFTISRDNAKNTSYLQMNSLKPEDTAVYYCAAARSDAVRIGYAEGYEYWGQGTQVTVSS | – | – | – | – | 5.98 ratio to control | 1.25 ratio to control

The next lines start with the values.

ELISA binding hIL-12RB2/control [1] [ratio] | Response [2] | koff [3] [s⁻¹] | ELISA binding mIL-12RB2/control [4] [ratio] | ELISA binding mIL-12RB2/control [5] | ELISA binding hIL-12RB2/control [6] | Binder
16.1 | 0.426 | 0.00274 | 1.77 | – | – | anti-IL-12Rβ2 VHH clone 20372 (VHH, not shown: small tags and cut ends, tested as periplasmic extract; also called 2CRH82) VHH: QVQLQESGGGLVQAGGSLRLSCAASARTESMYAMAWFRQAPGKEREIVAGIIQSGGTTYISDYMKGRFSIDRGNAENTVYLQMDSLKPEDTAVYSCAAKVSSGTPSDIQISQSRWYDHWGQGTQVTVSS
– | – | – | – | 13.5 ratio to control | 1 ratio to control | anti-IL-12Rβ2 VHH clone 2CRM28 (VHH, Tested as periplasmic extract; CDR3 group 40) VHH: QVQLQESGGGLVQPGGSLRLSCAASGRAWNEYNMGWFRQAPGKEREFVALIWWSSGNTYYADSVKGRFTISRDKVKNTVYLQMNSLKPEDTAVYYCAAGPTFNKYEYWGQGTQVTVSS
– | – | – | – | 6.24 ratio to control | 1.06 ratio to control | anti-IL-12Rβ2 VHH clone 2CAMS29 (VHH, Tested as periplasmic extract; CDR3 group 54; also called 20534) VHH: QVQLQESGGGLVQAGGSLRLSCAASGLTSSTYVIGWFRQAPGKEREFVAAIMLSGGTTIYADSLKGRCTIYKDNAKNTVYLQMNSLKLEDTAVYYCASGLIYRYSDFPRSQKYNFWGQGTQVTVSS
